Test results from article doi:10.1101/2024.05.02.592151 (bioRxiv, 2024).

Tests used:
[1] = molecular target: T1, CAP-G2 (in recombinant human condensin II) (human, UniProt Q86XI2 1-1143); assay: cross-linking
T1 sequence: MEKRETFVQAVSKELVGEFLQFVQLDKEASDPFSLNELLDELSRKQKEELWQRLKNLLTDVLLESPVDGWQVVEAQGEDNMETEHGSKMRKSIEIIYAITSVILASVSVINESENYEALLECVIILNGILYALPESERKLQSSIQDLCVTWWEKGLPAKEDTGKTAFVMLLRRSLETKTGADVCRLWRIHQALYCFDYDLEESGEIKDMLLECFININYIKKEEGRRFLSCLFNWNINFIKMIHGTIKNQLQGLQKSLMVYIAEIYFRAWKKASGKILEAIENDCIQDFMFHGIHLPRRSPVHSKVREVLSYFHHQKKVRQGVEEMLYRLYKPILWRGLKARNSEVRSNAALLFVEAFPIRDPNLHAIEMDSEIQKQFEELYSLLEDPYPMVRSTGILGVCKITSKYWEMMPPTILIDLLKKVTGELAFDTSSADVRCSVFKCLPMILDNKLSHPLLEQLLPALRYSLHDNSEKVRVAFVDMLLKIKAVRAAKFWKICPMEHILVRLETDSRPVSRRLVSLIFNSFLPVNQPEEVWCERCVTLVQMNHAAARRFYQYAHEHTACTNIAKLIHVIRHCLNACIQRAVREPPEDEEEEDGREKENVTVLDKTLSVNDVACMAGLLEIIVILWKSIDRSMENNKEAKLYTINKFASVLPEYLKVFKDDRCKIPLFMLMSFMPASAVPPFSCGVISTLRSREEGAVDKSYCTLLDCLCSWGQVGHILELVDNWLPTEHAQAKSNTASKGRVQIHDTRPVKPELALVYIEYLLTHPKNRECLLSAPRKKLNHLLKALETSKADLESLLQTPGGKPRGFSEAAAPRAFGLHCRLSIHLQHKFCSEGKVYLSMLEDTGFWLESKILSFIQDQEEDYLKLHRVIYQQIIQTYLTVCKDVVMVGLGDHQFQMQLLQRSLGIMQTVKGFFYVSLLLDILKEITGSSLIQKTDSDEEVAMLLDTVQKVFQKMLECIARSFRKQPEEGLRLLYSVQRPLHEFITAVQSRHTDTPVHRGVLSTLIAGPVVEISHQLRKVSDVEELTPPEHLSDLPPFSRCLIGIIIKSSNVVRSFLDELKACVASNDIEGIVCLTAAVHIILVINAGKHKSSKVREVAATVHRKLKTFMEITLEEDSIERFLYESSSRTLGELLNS

[2] = molecular target: condensin II pentamer (recombinant, human) (human, UniProt O95347;Q9NTJ3;Q6IBW4;P42695;Q86XI2); assay: cross-linking
[3] = molecular target: SMC2 (in recombinant human condensin II) (human, UniProt O95347 1-1197); assay: cryo-EM structure
[4] = molecular target: SMC4 (in recombinant human condensin II) (human, UniProt Q9NTJ3 2-1288); assay: cryo-EM structure
[5] = molecular target: T2, CAP-D3 (in recombinant human condensin II) (human, UniProt P42695 1-1498); assay: cryo-EM structure
T2 sequence: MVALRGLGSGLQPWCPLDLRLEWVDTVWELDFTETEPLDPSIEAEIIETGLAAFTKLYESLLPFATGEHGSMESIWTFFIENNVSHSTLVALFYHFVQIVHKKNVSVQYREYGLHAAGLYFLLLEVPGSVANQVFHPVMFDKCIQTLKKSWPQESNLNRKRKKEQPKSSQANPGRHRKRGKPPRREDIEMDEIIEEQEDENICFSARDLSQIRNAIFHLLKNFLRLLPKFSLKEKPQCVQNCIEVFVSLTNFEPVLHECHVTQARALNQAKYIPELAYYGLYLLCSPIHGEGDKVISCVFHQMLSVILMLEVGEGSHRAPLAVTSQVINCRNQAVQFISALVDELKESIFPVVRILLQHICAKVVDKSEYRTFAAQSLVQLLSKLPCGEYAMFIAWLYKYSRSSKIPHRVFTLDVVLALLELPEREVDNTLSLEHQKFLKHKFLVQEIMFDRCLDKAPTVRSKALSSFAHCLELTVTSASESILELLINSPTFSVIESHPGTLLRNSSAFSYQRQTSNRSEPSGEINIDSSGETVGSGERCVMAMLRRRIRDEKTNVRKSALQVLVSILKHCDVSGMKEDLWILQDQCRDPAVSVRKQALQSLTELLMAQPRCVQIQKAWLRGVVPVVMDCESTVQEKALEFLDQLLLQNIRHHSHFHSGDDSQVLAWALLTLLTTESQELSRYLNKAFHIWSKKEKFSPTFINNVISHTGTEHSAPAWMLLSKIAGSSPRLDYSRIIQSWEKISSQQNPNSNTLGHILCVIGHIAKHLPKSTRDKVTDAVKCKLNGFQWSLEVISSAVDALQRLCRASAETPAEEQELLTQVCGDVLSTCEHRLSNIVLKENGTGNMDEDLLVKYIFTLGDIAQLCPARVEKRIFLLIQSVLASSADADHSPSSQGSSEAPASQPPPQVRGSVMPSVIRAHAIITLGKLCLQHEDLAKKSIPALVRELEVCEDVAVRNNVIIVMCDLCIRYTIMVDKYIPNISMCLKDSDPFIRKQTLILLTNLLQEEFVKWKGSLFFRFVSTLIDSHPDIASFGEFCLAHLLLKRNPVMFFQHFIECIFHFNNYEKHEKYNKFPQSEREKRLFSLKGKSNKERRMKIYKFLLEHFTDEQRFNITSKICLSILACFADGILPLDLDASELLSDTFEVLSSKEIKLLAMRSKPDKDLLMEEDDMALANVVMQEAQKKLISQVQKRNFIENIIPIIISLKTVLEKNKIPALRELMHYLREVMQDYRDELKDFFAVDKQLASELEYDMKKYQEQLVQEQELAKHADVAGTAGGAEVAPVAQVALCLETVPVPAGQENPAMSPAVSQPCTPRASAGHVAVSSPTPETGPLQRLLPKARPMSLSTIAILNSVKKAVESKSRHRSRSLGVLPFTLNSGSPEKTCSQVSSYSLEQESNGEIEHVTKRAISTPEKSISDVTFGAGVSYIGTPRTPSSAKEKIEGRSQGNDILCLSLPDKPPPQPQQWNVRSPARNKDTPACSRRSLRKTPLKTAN

[6] = molecular target: T1, CAP-G2 (in recombinant human condensin …); assay: cryo-EM structure

Measured: binding result

Chain of condensin II pentamer (recombinant, human) (O95347 whole entry, chain 1 of 2): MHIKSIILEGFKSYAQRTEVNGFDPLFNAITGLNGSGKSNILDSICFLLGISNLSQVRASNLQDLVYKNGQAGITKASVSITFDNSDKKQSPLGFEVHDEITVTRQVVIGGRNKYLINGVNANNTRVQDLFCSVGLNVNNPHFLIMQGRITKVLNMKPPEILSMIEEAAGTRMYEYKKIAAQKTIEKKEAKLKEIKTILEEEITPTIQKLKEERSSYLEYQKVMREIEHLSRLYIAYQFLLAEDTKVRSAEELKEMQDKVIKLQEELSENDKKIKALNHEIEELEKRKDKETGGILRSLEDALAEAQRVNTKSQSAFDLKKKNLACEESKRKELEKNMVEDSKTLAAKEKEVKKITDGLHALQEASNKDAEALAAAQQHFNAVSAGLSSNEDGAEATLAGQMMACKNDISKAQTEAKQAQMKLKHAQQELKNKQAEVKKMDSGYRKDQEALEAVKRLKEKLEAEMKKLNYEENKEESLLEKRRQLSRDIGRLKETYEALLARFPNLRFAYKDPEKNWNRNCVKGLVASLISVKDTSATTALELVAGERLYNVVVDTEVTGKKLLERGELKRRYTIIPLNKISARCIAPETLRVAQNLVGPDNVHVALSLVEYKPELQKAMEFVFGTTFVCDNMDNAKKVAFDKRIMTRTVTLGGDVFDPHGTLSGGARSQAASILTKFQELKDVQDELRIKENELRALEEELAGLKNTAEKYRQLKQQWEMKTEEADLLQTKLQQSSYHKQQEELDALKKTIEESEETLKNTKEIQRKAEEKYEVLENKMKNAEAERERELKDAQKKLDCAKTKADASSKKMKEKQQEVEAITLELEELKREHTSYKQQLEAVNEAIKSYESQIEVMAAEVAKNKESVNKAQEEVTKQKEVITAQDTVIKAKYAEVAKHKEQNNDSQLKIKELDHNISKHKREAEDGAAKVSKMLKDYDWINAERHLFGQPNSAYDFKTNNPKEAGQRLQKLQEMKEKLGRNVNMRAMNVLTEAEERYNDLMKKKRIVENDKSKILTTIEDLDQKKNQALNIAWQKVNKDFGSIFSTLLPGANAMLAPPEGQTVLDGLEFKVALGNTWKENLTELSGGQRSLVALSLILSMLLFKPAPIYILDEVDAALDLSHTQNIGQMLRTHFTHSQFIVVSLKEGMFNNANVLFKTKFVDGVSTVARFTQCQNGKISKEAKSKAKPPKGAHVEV
Chain of condensin II pentamer (recombinant, human) (Q9NTJ3 2-1288, chain 2 of 2): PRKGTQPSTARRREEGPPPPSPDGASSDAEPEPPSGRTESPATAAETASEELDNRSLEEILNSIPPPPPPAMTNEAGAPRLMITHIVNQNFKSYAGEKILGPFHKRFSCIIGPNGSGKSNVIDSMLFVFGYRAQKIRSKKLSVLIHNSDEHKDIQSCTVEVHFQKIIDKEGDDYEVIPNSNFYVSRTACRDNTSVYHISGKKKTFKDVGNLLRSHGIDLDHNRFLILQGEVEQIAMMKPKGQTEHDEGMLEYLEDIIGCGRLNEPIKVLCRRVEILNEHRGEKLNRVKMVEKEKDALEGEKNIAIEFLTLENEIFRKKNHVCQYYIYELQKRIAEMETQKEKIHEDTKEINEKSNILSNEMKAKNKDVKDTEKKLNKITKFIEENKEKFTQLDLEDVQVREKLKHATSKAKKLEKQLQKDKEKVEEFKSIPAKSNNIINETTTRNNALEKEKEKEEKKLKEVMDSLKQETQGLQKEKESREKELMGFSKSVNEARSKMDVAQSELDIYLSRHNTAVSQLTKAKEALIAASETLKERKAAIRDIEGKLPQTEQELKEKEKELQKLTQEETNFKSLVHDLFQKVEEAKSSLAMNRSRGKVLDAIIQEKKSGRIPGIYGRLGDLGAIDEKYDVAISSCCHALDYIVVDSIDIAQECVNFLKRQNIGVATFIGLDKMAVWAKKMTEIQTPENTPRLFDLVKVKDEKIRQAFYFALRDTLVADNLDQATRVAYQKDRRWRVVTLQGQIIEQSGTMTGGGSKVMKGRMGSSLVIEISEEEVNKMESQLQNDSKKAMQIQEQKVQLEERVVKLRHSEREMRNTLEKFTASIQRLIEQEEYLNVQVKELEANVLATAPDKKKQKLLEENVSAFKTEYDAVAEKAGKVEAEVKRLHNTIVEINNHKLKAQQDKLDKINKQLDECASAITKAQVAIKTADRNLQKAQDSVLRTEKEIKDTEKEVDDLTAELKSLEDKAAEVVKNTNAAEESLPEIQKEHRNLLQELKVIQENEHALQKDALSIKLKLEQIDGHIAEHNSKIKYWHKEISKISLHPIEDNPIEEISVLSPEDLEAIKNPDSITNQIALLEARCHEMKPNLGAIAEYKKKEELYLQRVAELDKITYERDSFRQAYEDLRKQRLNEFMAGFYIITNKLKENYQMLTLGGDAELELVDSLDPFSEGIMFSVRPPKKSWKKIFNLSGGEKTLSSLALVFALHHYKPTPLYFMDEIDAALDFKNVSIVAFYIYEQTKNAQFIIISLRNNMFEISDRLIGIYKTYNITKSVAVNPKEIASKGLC
Chain of SMC2 (in recombinant human condensin II) (O95347 whole entry): as the sequence (O95347 whole entry, chain 1 of 2) above
Chain of SMC4 (in recombinant human condensin II) (Q9NTJ3 2-1288): as the sequence (Q9NTJ3 2-1288, chain 2 of 2) above

B1: MBP-MCPH1_(1-435) (domain or fragment)
chain: MAAPILKDVVAYVEVWSSNGTENYSKTFTTQLVDMGAKVSKTFNKQVTHVIFKDGYQSTWDKAQKRGVKLVSVLWVEKCRTAGAHIDESLFPAANMNEHLSSLIKKKRKCMQPKDFNFKTPENDKRFQKKFEKMAKELQRQKTNLDDDVPILLFESNGSLIYTPTIEINSRHHSAMEKRLQEMKEKRENLSPTSSQMIQQSHDNPSNSLCEAPLNISRDTLCSDEYFAGGLHSSFDDLCGNSGCGNQERKLEGSINDIKSDVCISSLVLKANNIHSSPSFTHLDKSSPQKFLSNLSKEEINLQRNIAGKVVTPDQKQAAGMSQETFEEKYRLSPTLSSTKGHLLIHSRPRSSSVKRKRVSHGSHSPPKEKCKRKRSTRRSIMPRLQLCRSEDRLQHVAGPALEALSCGESSYDDYFSPDNLKERYSENLPPESQL
binds: [1] | [2]

B2: CAP-H2 (in recombinant human condensin II) (natural protein)
chain: MEDVEARFAHLLQPIRDLTKNWEVDVAAQLGEYLEELDQICISFDEGKTTMNFIEAALLIQGSACVYSKKVEYLYSLVYQALDFISGKRRAKQLSSVQEDRANGVASSGVPQEAENEFLSLDDFPDSRTNVDLKNDQTPSEVLIIPLLPMALVAPDEMEKNNNPLYSRQGEVLASRKDFRMNTCVPHPRGAFMLEPEGMSPMEPAGVSPMPGTQKDTGRTEEQPMEVSVCRSPVPALGFSQEPGPSPEGPMPLGGGEDEDAEEAVELPEASAPKAALEPKESRSPQQSAALPRRYMLREREGAPEPASCVKETPDPWQSLDPFDSLESKPFKKGRPYSVPPCVEEALGQKRKRKGAAKLQDFHQWYLAAYADHADSRRLRRKGPSFADMEVLYWTHVKEQLETLRKLQRREVAEQWLRPAEEDHLEDSLEDLGAADDFLEPEEYMEPEGADPREAADLDAVPMSLSYEELVRRNVELFIATSQKFVQETELSQRIRDWEDTVQPLLQEQEQHVPFDIHTYGDQLVSRFPQLNEWCPFAELVAGQPAFEVCRSMLASLQLANDYTVEITQQPGLEMAVDTMSLRLLTHQRAHKRFQTYAAPSMAQP
binds: [3] | [4] | [5] | [6]
